# T1: pIRSp53FS (human (from the printed UniProt entry), UniProt Q9UQB8-4 1-521, S519C, natively phosphorylated in HEK293T cells; fluorescein maleimide / rhodamine maleimide on C230 and C519)
# T1 construct: IRSp53 (BAIAP2), isoform-4, UniProt Q9UQB8-4, full length, S519C; Expressed and purified as m4; also called IRSp53 FRET sensor; phosphorylated IRSp53 (mutant S519C)
# T1 sequence (looked up): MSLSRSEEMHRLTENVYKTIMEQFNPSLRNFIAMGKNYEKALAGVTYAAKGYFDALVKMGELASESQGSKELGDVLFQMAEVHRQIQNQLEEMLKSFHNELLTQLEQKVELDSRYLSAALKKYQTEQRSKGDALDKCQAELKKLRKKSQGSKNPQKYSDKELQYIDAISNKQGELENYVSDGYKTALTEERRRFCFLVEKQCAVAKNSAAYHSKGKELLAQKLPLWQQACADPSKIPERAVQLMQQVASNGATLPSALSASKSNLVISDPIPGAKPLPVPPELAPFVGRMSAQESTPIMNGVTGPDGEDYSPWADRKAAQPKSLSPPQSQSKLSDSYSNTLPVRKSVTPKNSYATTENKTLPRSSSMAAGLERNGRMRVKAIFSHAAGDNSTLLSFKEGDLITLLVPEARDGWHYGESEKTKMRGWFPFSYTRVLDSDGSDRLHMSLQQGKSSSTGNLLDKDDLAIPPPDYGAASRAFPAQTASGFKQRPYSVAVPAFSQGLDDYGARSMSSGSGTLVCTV
# T2: pM234FS (human (from the printed UniProt entry), UniProt Q9UQB8-4 1-521, T340A | T360A | S366A | S519C, fluorescein / rhodamine labels as in pIRSp53FS (C230 and C519))
# T2 construct: IRSp53 (BAIAP2), isoform-4, UniProt Q9UQB8-4, full length, FRET sensor (S519C) with T340A/T360A/S366A; also called modified FRET sensor T340A/T360A/S366A; source: serum-starved HEK293T, purified, labelled
# T2 sequence (looked up): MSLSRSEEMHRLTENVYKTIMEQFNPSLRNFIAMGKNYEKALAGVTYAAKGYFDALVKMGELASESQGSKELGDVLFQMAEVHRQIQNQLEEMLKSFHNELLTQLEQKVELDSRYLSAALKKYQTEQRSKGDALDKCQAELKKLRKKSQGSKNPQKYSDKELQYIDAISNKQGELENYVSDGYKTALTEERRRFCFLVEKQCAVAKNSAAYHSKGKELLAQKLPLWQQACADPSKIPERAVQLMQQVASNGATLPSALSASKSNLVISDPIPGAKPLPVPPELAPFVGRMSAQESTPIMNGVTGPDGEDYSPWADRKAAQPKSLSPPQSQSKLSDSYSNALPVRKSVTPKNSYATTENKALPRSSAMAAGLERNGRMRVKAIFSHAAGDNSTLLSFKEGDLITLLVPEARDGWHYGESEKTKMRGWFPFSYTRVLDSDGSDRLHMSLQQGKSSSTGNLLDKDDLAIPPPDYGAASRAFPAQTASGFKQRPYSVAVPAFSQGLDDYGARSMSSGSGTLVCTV
# Legend:
# [1] = target: T3, FLAG-Eps8/pIRSp53 complex (human | human (from the printed UniProt …, UniProt Q12929 1-822)); Q9UQB8-4 1-521, natively phosphorylated in HEK293T cells (as m4)); experiment: pull-down; anti-Flag magnetic beads with or without the FLAG-Eps8/pIRSp53 complex; 14-3-3θ detected; details: both partners purified
# T3 construct: Eps8, human, UniProt Q12929, full length; IRSp53 (BAIAP2), isoform-4, UniProt Q9UQB8-4, full length; source: formed from purified 2xFLAG-Eps8 (HEK293T) and purified pIRSp53 (serum-starved HEK293T)
# T3 sequence (Q12929 whole entry, canonical isoform, one chain of several): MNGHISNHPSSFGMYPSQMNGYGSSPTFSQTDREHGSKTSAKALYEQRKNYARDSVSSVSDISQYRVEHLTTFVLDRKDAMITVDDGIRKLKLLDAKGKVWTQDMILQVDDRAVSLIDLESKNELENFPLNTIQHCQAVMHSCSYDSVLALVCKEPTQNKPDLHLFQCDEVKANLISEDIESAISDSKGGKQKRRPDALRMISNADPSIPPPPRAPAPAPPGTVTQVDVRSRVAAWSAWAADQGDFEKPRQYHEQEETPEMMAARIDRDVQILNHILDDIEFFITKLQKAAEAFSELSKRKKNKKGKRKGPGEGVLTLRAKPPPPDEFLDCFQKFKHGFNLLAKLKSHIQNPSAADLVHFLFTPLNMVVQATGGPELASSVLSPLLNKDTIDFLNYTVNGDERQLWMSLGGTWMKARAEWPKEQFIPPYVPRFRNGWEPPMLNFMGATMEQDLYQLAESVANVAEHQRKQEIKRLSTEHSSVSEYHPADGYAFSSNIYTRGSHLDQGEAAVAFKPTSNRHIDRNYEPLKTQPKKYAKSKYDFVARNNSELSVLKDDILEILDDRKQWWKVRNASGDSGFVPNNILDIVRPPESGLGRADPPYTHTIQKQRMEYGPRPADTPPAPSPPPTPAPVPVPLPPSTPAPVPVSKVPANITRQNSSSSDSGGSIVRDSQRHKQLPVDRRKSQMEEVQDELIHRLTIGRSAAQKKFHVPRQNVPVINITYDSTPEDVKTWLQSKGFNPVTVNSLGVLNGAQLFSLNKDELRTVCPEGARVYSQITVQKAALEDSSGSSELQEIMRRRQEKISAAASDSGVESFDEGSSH
# [2] = target: the molecule itself; experiment: crystal structure; 14-3-3θ pre-incubated with singly (2.5:1) or doubly (0.6:1) phosphorylated IRSp53 peptides; hanging drop, 18 °C; resolution 2.0 to 2.9 Å
# pIRSp53FS = target: T1, pIRSp53FS; experiment: other fluorescence titration; intramolecular FRET sensor (fluorescein/rhodamine on C230 and C519 of IRSp53); Cdc42, Eps8 and/or 14-3-3θ titrated into the sensor, also back to back; 20 °C; 25 mM Tris-HCl pH 7.5, 150 mM NaCl, 1 mM MgCl2, 5% glycerol, 0.1 mM TCEP; observed Kd (Kobs) from the fits; details: both partners purified
# pM234FS = target: T2, pM234FS; experiment: as above; details: both partners purified
# 2xFLAG-Eps8 = target: T4, 2xFLAG-Eps8 (human, UniProt Q12929 1-822); experiment: pull-down; anti-Flag magnetic beads with or without the FLAG-Eps8/pIRSp53 complex; 14-3-3θ detected; details: both partners purified
# T4 construct: Eps8, human, UniProt Q12929, full length; also called FLAG-tagged Eps8
# T4 sequence (Q12929 whole entry): as the sequence (Q12929 whole entry, canonical isoform, one chain of several) above
binding result [1],Kd (pIRSp53FS),binding result (pM234FS),binding result (2xFLAG-Eps8),Binder,binding result [2]
binds,0.079 µM,,,"14-3-3θ (natural protein, human, 14-3-3θ, human, UniProt P27348; also called 14-3-3 theta; 14-3-3τ) MEKTELIQKAKLAEQAERYDDMATCMKAVTEQGAELSNEERNLLSVAYKNVVGGRRSAWRVISSIEQKTDTSDKKLQLIKDYREKVESELRSICTTVLELLDKYLIANATNPESKVFYLKMKGDYFRYLAEVACGDDRKQTIDNSQGAYQEAFDISKKEMQPTHPIRLGLALNFSVFYYEILNNPELACTLAKTAFDEAIAELDTLNEDSYKDSTLIMQLLRDNLTLWTSDSAGEECDAAEGAEN",binds
,19.1 µM,binds,,"GMPPNP-Cdc42 (constitutively active mutant G12V) (domain or fragment, Cdc42, human, residues 1-178, G12V; Loaded with GMPPNP; also called GNPPNP-Cdc42 (G12V mutant); source: E. coli BL21(DE3), purified) not shown",
,,,binds,"IRSp53-FLAG (wild type), natively phosphorylated (natural protein, human (from the printed UniProt entry), UniProt Q9UQB8-4 1-521, looked up, phosphorylated in HEK293T cells at S325, T340, T360, S366 and a residue within 452SSST455, most likely S454 (mass spectrometry of the purified 14-3-3-binding-competent fraction), also called pIRSp53; WT IRSp53-FLAG; source: HEK293T, transfected, in lysate; not shown: FLAG, C-terminal, kept) MSLSRSEEMHRLTENVYKTIMEQFNPSLRNFIAMGKNYEKALAGVTYAAKGYFDALVKMGELASESQGSKELGDVLFQMAEVHRQIQNQLEEMLKSFHNELLTQLEQKVELDSRYLSAALKKYQTEQRSKGDALDKCQAELKKLRKKSQGSKNPQKYSDKELQYIDAISNKQGELENYVSDGYKTALTEERRRFCFLVEKQCAVAKNSAAYHSKGKELLAQKLPLWQQACADPSKIPERAVQLMQQVASNGATLPSALSASKSNLVISDPIPGAKPLPVPPELAPFVGRMSAQESTPIMNGVTGPDGEDYSPWADRKAAQPKSLSPPQSQSKLSDSYSNTLPVRKSVTPKNSYATTENKTLPRSSSMAAGLERNGRMRVKAIFSHAAGDNSTLLSFKEGDLITLLVPEARDGWHYGESEKTKMRGWFPFSYTRVLDSDGSDRLHMSLQQGKSSSTGNLLDKDDLAIPPPDYGAASRAFPAQTASGFKQRPYSVAVPAFSQGLDDYGARSMSSGSGTLVSTV",
